From IntAct's records for PubMed 11872753

B1: Acid-sensing ion channel 3 (Rattus norvegicus (Rat)), O35240 (parent)
chain: MKPRSGLEEAQRRQASDIRVFASSCTMHGLGHIFGPGGLTLRRGLWATAVLLSLAAFLYQVAERVRYYGEFHHKTTLDERESHQLTFPAVTLCNINPLRRSRLTPNDLHWAGTALLGLDPAEHAAYLRALGQPPAPPGFMPSPTFDMAQLYARAGHSLEDMLLDCRYRGQPCGPENFTVIFTRMGQCYTFNSGAHGAELLTTPKGGAGNGLEIMLDVQQEEYLPIWKDMEETPFEVGIRVQIHSQDEPPAIDQLGFGAAPGHQTFVSCQQQQLSFLPPPWGDCNTASLDPDDFDPEPSDPLGSPRPRPSPPYSLIGCRLACESRYVARKCGCRMMHMPGNSPVCSPQQYKDCASPALDAMLRKDTCVCPNPCATTRYAKELSMVRIPSRASARYLARKYNRSESYITENVLVLDIFFEALNYEAVEQKAAYEVSELLGDIGGQMGLFIGASLLTILEILDYLCEVFQDRVLGYFWNRRSAQKRSGNTLLQEELNGHRTHVPHLSLGPRPPTTPCAVTKTLSASHRTCYLVTRL
partner: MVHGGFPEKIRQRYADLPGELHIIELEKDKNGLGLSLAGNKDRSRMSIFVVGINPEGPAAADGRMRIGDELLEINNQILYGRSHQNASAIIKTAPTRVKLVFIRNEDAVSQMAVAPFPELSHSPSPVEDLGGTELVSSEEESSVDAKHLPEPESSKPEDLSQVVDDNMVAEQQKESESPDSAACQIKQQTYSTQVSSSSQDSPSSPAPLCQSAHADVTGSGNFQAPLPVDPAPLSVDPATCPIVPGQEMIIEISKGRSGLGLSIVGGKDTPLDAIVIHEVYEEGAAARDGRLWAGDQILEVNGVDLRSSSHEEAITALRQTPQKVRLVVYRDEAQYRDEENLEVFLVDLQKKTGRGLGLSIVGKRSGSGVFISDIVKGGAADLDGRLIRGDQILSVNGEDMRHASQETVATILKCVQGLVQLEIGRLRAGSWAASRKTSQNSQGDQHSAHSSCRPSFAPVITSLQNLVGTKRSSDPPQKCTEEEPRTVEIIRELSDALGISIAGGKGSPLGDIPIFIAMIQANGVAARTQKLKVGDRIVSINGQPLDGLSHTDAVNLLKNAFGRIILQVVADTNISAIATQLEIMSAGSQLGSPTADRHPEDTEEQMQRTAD

Variants of: B1
Conditions: with Patj

Variant | effect of a mutation on the interaction
MKPRSGLEEAQRRQASDIRVFASSCTMHGLGHIFGPGGLTLRRGLWATAVLLSLAAFLYQVAERVRYYGEFHHKTTLDERESHQLTFPAVTLCNINPLRRSRLTPNDLHWAGTALLGLDPAEHAAYLRALGQPPAPPGFMPSPTFDMAQLYARAGHSLEDMLLDCRYRGQPCGPENFTVIFTRMGQCYTFNSGAHGAELLTTPKGGAGNGLEIMLDVQQEEYLPIWKDMEETPFEVGIRVQIHSQDEPPAIDQLGFGAAPGHQTFVSCQQQQLSFLPPPWGDCNTASLDPDDFDPEPSDPLGSPRPRPSPPYSLIGCRLACESRYVARKCGCRMMHMPGNSPVCSPQQYKDCASPALDAMLRKDTCVCPNPCATTRYAKELSMVRIPSRASARYLARKYNRSESYITENVLVLDIFFEALNYEAVEQKAAYEVSELLGDIGGQMGLFIGASLLTILEILDYLCEVFQDRVLGYFWNRRSAQKRSGNTLLQEELNGHRTHVPHLSLGPRPPTTPCAVTKTLSASHRTCYLVTRF [L533F] | disrupting interaction
